Measurements as given in patent US20090111753A1, “Nogo-A Polypeptide Fragments, Variant Nogo Receptor-1 Polypeptides, and Uses Thereof” (Yale University, priority 2004, published 2009).
Where a chain is given by its changes, count along the chain named.

Key:
[1] = system: NgR ligands; assay: Binding of alanine substituted NgR mutants to NgR ligands, summary categories; conditions: AP-Nogo66, AP-B4C, AP-B4C66, AP-Lingo-1, AP-OMgp and AP-MAG; compared to wild type NgR
Excerpt: (§1) To better define how multiple ligands bind to the NgR protein, we examined a series of Ala-substituted NgR for ligand binding activity. NgR mutagenesis was done using the Quick Change Multisite Directed Mutagenesis Kit (Stratagene catalog #200514). Human NgR1 was used as a template. Ala substitutions were generated for each of the charged residues predicted to be solvent accessible at the surface of the ligand binding domain of NgR (Barton, W. A., et al., Embo J. 22:3291-3302 (2003); He, X. L., et al., Neuron 38:177-185 (2003)). We generated mutants in which 1-8 surface residues localized within 5 A of one another were Ala-substituted. Because of the coiling nature of the LRR structure, as residues juxtaposed on the protein surface are commonly separated by approximately 25 residues in the primary structure. In addition to mutations in specific charged surface patches, other mutations were targeted to glycosylation sites and to regions predicted to be involved in ligand binding based on the NgR structure (Barton, W. A., et al., Embo J. 22:3291-3302 (2003); He, X. L., et al., Neuron 38:177-185 (2003)). In addition, a variant corresponding to a human polymorphism was examined (D259N). None of the mutations altered the Leu residues that define the LRR structure itself or the Cys residues critical in the amino and carboxyl terminal capping domains. The vast majority of such Ala surface substitution mutants were expressed as immunoreactive polypeptides with a molecular weight and an expression level indistinguishable from wild type NgR (FIG. 4C and data not shown).
(§2) This collection of 74 individual NgR mutants was interrogated for AP-Nogo-66, AP-Amino-Nogo-B4C, AP-MAG, AP-OMgp, and AP-Lingo-1 binding. AP-Nogo66, AP-MAG, AP-OMGP and AP-Lingo-1 constructs are described elsewhere (Fournier, A. E., et al., Nature 409:341-346 (2001); Liu, B. P., et al., Science 297:1190-1193 (2002); Mi, S., et al., Nat. Neurosci. 7:221-228 (2004); Wang, K. C., et al., Nature 417:941-944 (2002b)). The properties of the NgR mutants fell into one of three major categories (Table II and FIG. 5). A number of Ala substituted NgR polypeptides bound all of the ligands at wild type levels. […] In addition, a significant extent of the concave surface is dispensable for ligand binding.
Alanine substituted NgR mutants were tested for their binding to AP-Nogo66, AP-B4C, AP-B4C66, AP-Lingo-1, AP-OMgp and AP-MAG and they fall into three categories: (1) Mutants that lose binding to all NgR ligands. (2) Mutants that still maintain binding to all NgR ligands. […] The D259N mutant is an asparagine substitution to mimic a human polymorphism.

[2] = molecular target: T1, AP-Nogo66 (Homo sapiens, UniProt Q9NQC3); assay: Binding of AP-Nogo66 to COS-7 cells expressing NgR mutants; design: key: ++: WT level; +: weaker than wild type; trace binding; −: no binding; conditions: AP-Ng66 5 nM; level of binding compared to wild type NgR
T1 construct: made in house; NgR mutants: COS-7
T1 sequence (Q9NQC3 1055-1120 limits assumed): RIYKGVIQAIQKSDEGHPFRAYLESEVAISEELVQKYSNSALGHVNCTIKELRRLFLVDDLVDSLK
Experimental: (§3) FIG. 4A. […] Binding of AP or AP fused NgR ligands to COS-7 cells expressing different NgR mutants as indicated. The concentrations of ligands applied were: AP, 30 nM; AP-Ng66, 5 nM; AP-Ng33, 10 nM; AP-B4C, 10 nM; AP-B4C66, 0.5 nM; AP-Lingo-1, 10 nM; AP-OMGP, 10 nM; AP-MAG, 30 nM. These concentrations are close to the binding Kd of these proteins to NgR so that any […] is reflected linearly in staining.
(§4) FIG. 4B. AP binding of NgR ligands to NgR mutants expressed as percentage of wild type NgR. AP after incubation with AP fused ligands, AP bound to COS-7 cells expressing NgR or NgR mutants were stained and measured.
as §1, §2
(§5) Binding of Alanine substituted NgR mutants to NgR ligands were compared to wild type NgR and the levels of binding were categorized as ++ (WT level), + (weaker than wild type), tr (trace binding), − (no binding), N/A (not determined). NgR mutant proteins were also subjected to SDS-PAGE and probed by anti-NgR antibodies. Mutants with expression level similar to WT NgR were labeled as “y”.

[3] = molecular target: T2, AP-B4C (Homo sapiens, UniProt Q9NQC3); assay: Binding of AP-B4C to COS-7 cells expressing NgR mutants; design: key: ++: WT level; +: weaker than wild type; trace binding; −: no binding; conditions: AP-B4C 10 nM; level of binding compared to wild type NgR
T2 construct: a.a; 950-1018 (AmNg B4C); made in house; host or cells: AP ligand: HEK293T conditioned medium; NgR mutants: COS-7
T2 sequence (Q9NQC3 950-1018): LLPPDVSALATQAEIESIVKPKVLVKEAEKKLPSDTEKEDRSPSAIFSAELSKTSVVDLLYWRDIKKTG
Experimental: as §3, §4, §1, §2, §5

[4] = system: AP-B4C66; assay: Binding of AP-B4C66 to COS-7 cells expressing NgR mutants; design: key: ++: WT level; +: weaker than wild type; trace binding; −: no binding; conditions: AP-B4C66 0.5 nM; level of binding compared to wild type NgR
Experimental: as §3, §4, §1, §2, §5

[5] = molecular target: T3, AP-Lingo-1 (Homo sapiens, UniProt Q96FE5); assay: Binding of AP-Lingo-1 to COS-7 cells expressing NgR mutants; design: key: ++: WT level; +: weaker than wild type; trace binding; −: no binding; conditions: AP-Lingo-1 10 nM; level of binding compared to wild type NgR
T3 construct: made in house; NgR mutants: COS-7
T3 sequence (Q96FE5 40-538 limits assumed): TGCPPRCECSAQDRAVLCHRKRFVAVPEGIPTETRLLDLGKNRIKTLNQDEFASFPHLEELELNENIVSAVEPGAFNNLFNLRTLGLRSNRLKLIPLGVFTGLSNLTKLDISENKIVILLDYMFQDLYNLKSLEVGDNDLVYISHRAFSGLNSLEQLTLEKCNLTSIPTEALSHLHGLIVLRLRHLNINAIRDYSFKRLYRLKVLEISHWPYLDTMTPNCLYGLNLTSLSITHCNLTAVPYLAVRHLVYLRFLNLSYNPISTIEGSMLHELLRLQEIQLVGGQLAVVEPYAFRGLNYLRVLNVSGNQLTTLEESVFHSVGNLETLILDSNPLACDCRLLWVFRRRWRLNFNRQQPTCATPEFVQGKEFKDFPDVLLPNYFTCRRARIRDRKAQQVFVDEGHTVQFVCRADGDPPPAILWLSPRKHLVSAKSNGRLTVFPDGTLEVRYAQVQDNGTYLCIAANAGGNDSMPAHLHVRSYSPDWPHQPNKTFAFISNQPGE
Experimental: as §3, §4, §1, §2, §5

[6] = system: AP-OMgp; assay: Binding of AP-OMgp to COS-7 cells expressing NgR mutants; design: key: ++: WT level; +: weaker than wild type; trace binding; −: no binding; conditions: AP-OMGP 10 nM; level of binding compared to wild type NgR
Experimental: as §3, §4, §1, §2, §5

[7] = system: AP-MAG; assay: Binding of AP-MAG to COS-7 cells expressing NgR mutants; design: key: ++: WT level; +: weaker than wild type; trace binding; −: no binding; conditions: AP-MAG 30 nM; level of binding compared to wild type NgR
Experimental: as §3, §4, §1, §2, §5

B1: 114, 117, 139: human NgR1 mutant, listed residues mutated to alanine (protein)
chain: CPGACVCYNEPKVTTSCPQQGLQAVPVGIPAASQRIFLHGNRISHVPAASFRACRNLTILWLHSNVLARIDAAAFTGLALLEQLDLSANAALRSVDPATFHGLGRLHTLHLDACGLQELGPGLFRGLAALQYLYLQDNALQALPDDTFRDLGNLTHLFLHGNRISSVPERAFRGLHSLDRLLLHQNRVAHVHPHAFRDLGRLMTLYLFANNLSALPTEALAPLRALQYLRLNDNPWVCDCRARPLWAWLQKFRGSSSEVPCSLPQRLAGRDLKRLAANDLQGCAVATGPYHPIWTGRATDEEPLGLPKCCQPDAADKASVLEPGRPASAGNALKGRVPPGDSPPGNGSGPRHINDSPFGTLPGSAEPPLTAVRPEGSEPPGFPTSGPRRRPGCSRKNRTRSHCRLGQAGSGGGGTGDSEGSGALPSLTCSLTPLGLALVLWTVLGPC
[1]
  ligand binding category of NgR mutant (Table II): Differential binding
[2]
  Ng66: +
[3]
  B4C: +
[4]
  B4C-66: +
[5]
  Lingo-1: −
[6]
  OMgp: −
[7]
  MAG: −

B2: 117, 119, 120: human NgR1 mutant, listed residues mutated to alanine (protein)
chain: B1 chain with A88D, R93A, S94A, A113R
[1]
  ligand binding category of NgR mutant (Table II): Differential binding
[2]
  Ng66: ++
[3]
  B4C: ++
[4]
  B4C-66: ++
[5]
  Lingo-1: tr
[6]
  OMgp: tr
[7]
  MAG: −

B3: 237, 256, 259: human NgR1 mutant, listed residues mutated to alanine (protein)
chain: B1 chain with A88D, A91Q, A113R, N211A, R230A, D233A
[1]
  ligand binding category of NgR mutant (Table II): Differential binding
[2]
  Ng66: tr
[3]
  B4C: tr
[4]
  B4C-66: +
[5]
  Lingo-1: +
[6]
  OMgp: tr
[7]
  MAG: −

B4: 63, 65, 87, 89: human NgR1 mutant, listed residues mutated to alanine (protein)
chain: B1 chain with F37A, H39A, W61A, H63A, A88D, A91Q, A113R
[1]
  ligand binding category of NgR mutant (Table II): Differential binding
[2]
  Ng66: ++
[3]
  B4C: ++
[4]
  B4C-66: ++
[5]
  Lingo-1: −
[6]
  OMgp: +
[7]
  MAG: −

B5: 237, 256, 284: human NgR1 mutant, listed residues mutated to alanine (protein)
chain: B1 chain with A88D, A91Q, A113R, N211A, R230A, E258A
[1]
  ligand binding category of NgR mutant (Table II): Differential binding
[2]
  Ng66: ++
[3]
  B4C: ++
[4]
  B4C-66: ++
[5]
  Lingo-1: ++
[6]
  OMgp: +
[7]
  MAG: −

B6: 216, 218, 220: human NgR1 mutant, listed residues mutated to alanine (protein)
chain: B1 chain with A88D, A91Q, A113R, H190A, H192A, H194A
[1]
  ligand binding category of NgR mutant (Table II): Differential binding
[2]
  Ng66: ++
[3]
  B4C: ++
[4]
  B4C-66: ++
[5]
  Lingo-1: +
[6]
  OMgp: +
[7]
  MAG: tr

B7: 87, 89: human NgR1 mutant, listed residues mutated to alanine (protein)
chain: B1 chain with W61A, H63A, A88D, A91Q, A113R
[1]
  ligand binding category of NgR mutant (Table II): Differential binding
[2]
  Ng66: ++
[3]
  B4C: ++
[4]
  B4C-66: ++
[5]
  Lingo-1: −
[6]
  OMgp: +
[7]
  MAG: +

B8: 256, 259, 284: human NgR1 mutant, listed residues mutated to alanine (protein)
chain: B1 chain with A88D, A91Q, A113R, R230A, D233A, E258A
[1]
  ligand binding category of NgR mutant (Table II): Differential binding
[2]
  Ng66: +
[3]
  B4C: +
[4]
  B4C-66: ++
[5]
  Lingo-1: ++
[6]
  OMgp: +
[7]
  MAG: −

B9: 220, 223, 224: human NgR1 mutant, listed residues mutated to alanine (protein)
chain: B1 chain with A88D, A91Q, A113R, H194A, R197A, D198A
[1]
  ligand binding category of NgR mutant (Table II): Differential binding
[2]
  Ng66: +
[3]
  B4C: +
[4]
  B4C-66: +
[5]
  Lingo-1: −
[6]
  OMgp: −
[7]
  MAG: tr

B10: 61, 108, 131: human NgR1 mutant, listed residues mutated to alanine (protein)
chain: B1 chain with R35A, E82A, A88D, A91Q, R105A, A113R
[1]
  ligand binding category of NgR mutant (Table II): Differential binding
[2]
  Ng66: tr
[3]
  B4C: +
[4]
  B4C-66: +
[5]
  Lingo-1: −
[6]
  OMgp: −
[7]
  MAG: −
